# Biological target: T1, HLA-A*24
# T1 construct: Monomers captured on streptavidin plates; also called peptide-receptive MHC molecules; MHC complexes
# Assay: UV peptide-exchange ELISA (anti-b2m); yield grade + = >10%
# Text: (§1) Candidate peptides for T cell based therapies according to the present invention were further tested for their MHC binding capacity (affinity). The individual peptide-MHC complexes were produced by UV-ligand exchange, where a UV-sensitive peptide is cleaved upon UV-irradiation, and exchanged with the peptide of interest as analyzed. Only peptide candidates that can effectively bind and stabilize the peptide-receptive MHC molecules prevent dissociation of the MHC complexes. To determine the yield of the exchange reaction, an ELISA was performed based on the detection of the light chain (p2m) of stabilized MHC complexes. The assay was performed as generally described in Rodenko et al. (Rodenko et al., 2006)
# (§2) 96 well MAXISorp plates (NUNC) were coated over night with 2 ug/ml streptavidin in PBS at room temperature, washed 4× and blocked for 1 h at 37° C. in 2% BSA containing blocking buffer. Refolded HLA-A*02:01/MLA-001 monomers served as standards, covering the range of 15-500 ng/ml. Peptide-MHC monomers of the UV-exchange reaction were diluted 100-fold in blocking buffer. Samples were incubated for 1 h at 37° C., washed four times, incubated with 2 ug/ml HRP conjugated anti-β2m for 1h at 37° C., washed again and detected with TMB solution that is stopped with […]. Absorption was measured at 450 nm. Candidate peptides that show a high exchange yield (preferably higher than 50%, most preferred higher than 75%) are generally preferred for a generation and production of antibodies or fragments thereof, and/or T cell receptors or fragments thereof, as they show sufficient avidity to the MHC molecules and prevent dissociation of the MHC complexes.
row,peptide exchange yield,Binder
1,10 to 20%,KYKNPYGF (also called KYKNPYGF) [MMP20-001]
2,10 to 20%,QHAWLPLTI (also called QHAWLPLTI) [TCL1A-004]
3,10 to 20%,VTPKMLISF (also called VTPKMLISF) [OR5H8P-001]
4,10 to 20%,KLRALSILF (also called KLRALSILF) [PTP-039]
5,10 to 20%,KQVIGIHTF (also called KQVIGIHTF) [SFMBT1-002]
6,10 to 20%,SYIVDGKII (also called SYIVDGKII) [PSG9-001]
7,10 to 20%,KDQPQVPCVF (also called KDQPQVPCVF) [NAT1-001]
8,10 to 20%,MFQEMLQRL (also called MFQEMLQRL) [TRIML2-001]
9,10 to 20%,TYFFVANKY (also called TYFFVANKY) [MMP1-011]
10,10 to 20%,QFYSTLPNTI (also called QFYSTLPNTI) [ROS-009]
11,10 to 20%,ATATLHLIF (also called ATATLHLIF) [PCD-007]
12,10 to 20%,MMALWSLLHL (also called MMALWSLLHL) [ZAC-001]
13,10 to 20%,LQIPVSPSF (also called LQIPVSPSF) [MAGEC1-004]
14,10 to 20%,KQHAWLPLTI (also called KQHAWLPLTI) [TCL1A-003]

# More lines, now with the values behind:
row,Binder,peptide exchange yield
1,GTGKLFWVF (also called GTGKLFWVF) [BTL-003],10 to 20%
2,KVVSGFYYI (also called KVVSGFYYI) [CCR8-003],10 to 20%
3,VQADAKLLF (also called VQADAKLLF) [C20-002],10 to 20%
4,FPPTPPLF (also called FPPTPPLF) [BCL11A-002],10 to 20%
5,RRLWAYVTI (also called RRLWAYVTI) [ITIH6-002],10 to 20%
6,LIFALALAAF (also called LIFALALAAF) [GAST-001],10 to 20%
7,RVHANPLLI (also called RVHANPLLI) [APOB-081],10 to 20%
8,YQVAKGMEF (also called YQVAKGMEF) [FLT3-014],10 to 20%
9,IYPHGVTFSP (also called IYPHGVTFSP) [F5-004],10 to 20%
10,ISFSDTVNVW (also called ISFSDTVNVW) [ITIH6-001],10 to 20%
11,SHSDHEFLF (also called SHSDHEFLF) [ARSH-001],10 to 20%
12,VYFVQYKIM (also called VYFVQYKIM) [IL22RA2-001],10 to 20%
13,IVTFMNKTLGTF (also called IVTFMNKTLGTF) [ADAM29-001],10 to 20%

# Biological target: T1, HLA-A*24
# Assay: UV peptide-exchange ELISA (anti-b2m); yield grade +++ = >50
# Text: as §1, §2
row,peptide exchange yield,Binder
1,50 to 75%,RLGEFVLLF (also called RLGEFVLLF) [TGM6-001]
2,50 to 75%,QYPEFSIEL (also called QYPEFSIEL) [TGM4-001]
3,50 to 75%,FYIVTRPLAF (also called FYIVTRPLAF) [SUCN-002]
4,50 to 75%,SYQEAIQQL (also called SYQEAIQQL) [NEFH-003]
5,50 to 75%,SYVLQIVAI (also called SYVLQIVAI) [PTP-041]
6,50 to 75%,KVWSDVTPLTF (also called KVWSDVTPLTF) [MMP11-023]

# More lines, now with the values behind:
row,Binder,peptide exchange yield
1,VGGNVTSNF (also called VGGNVTSNF) [CT45-004],50 to 75%
2,VGGNVTSSF (also called VGGNVTSSF) [CT45-005],50 to 75%
3,YFDENIQKF (also called YFDENIQKF) [HEPHL-006],50 to 75%
4,IYPDSIQEL (also called IYPDSIQEL) [LOC-019],50 to 75%
5,TDWSPPPVEF (also called TDWSPPPVEF) [FAM178B-001],50 to 75%
6,LFQRVSSVSF (also called LFQRVSSVSF) [HMCN1-010],50 to 75%
7,SLWREVVTF (also called SLWREVVTF) [CEP250-004],50 to 75%
8,VYEHNHVSL (also called VYEHNHVSL) [BTBD16-006],50 to 75%
9,RIFTARLYF (also called RIFTARLYF) [AICD-001],50 to 75%

# — patent US20190352359A1 (IMMATICS BIOTECHNOLOGIES, published 2019)
